Measurements: publication PMC8660638

Molecular target: RNA polymerase I (13-subunit complex) (Homo sapiens (HEK293T), UniProt O95602;Q9H9Y6;O15160;P0DPB6;Q9P1U0;Q3B726;Q9GZS1;O15446;P19388;P61218;P52434;P53 …)
Test: cryo-EM structure; open complex, inactive state, 3.3 A; RRN3 in sample but not bound in this class; downstream duplex traced, bubble not stably bound at active site; EM buffer: 15 mM HEPES pH 7.5, 80 mM (NH4)2SO4, 5 mM MgCl2, 10 mM DTT; scaffold annealed in 20 mM HEPES pH 7.5, 12 mM MgCl2, 100 mM NaCl, 10 mM DTT (1x, from printed 2x); complex incubation temperature not given
Details: protein: native; copies: 1;1;1;1;1;1;1;1;1;1;1;1;1; 43-bp duplex with 12-nt mismatch bubble, blunt

B1: Pol I OC scaffold (template/nontemplate DNA, no RNA) (dsDNA)
DNA 1: GTACTGAATTAGACAATGCTCTGTGGCTCTAGTACCATGAGCG
DNA 2: CGCTCATGGTACTAGGCTTCGGAGAAGTTGTCTAATTCAGTAC
Does B1 bind?
Result: binds
